# B1: Helicobacter pylori neutrophil-activating protein (HP-NAP), recombinant, expressed in Bacillus subtilis (natural protein)
# chain: MKTFEILKHLQADAIVLFMKVHNFHWNVKGTDFFNVHKATEEIYEEFADMFDDLAERIVQLGHHPLVTLSEAIKLTRVKEETKTSFHSKDIFKEILEDYKYLEKEFKELSNTAEKEGDKVTVTYADDQLAKLQKSIWMLQAHLA
# notes: monomer 16.934 kDa by LC-MS (theoretical 16.933 kDa); napA was cut from pET28a-His-NAP with NdeI and XhoI and cloned into pRPA; The measured monomer mass (16.934 kDa) fits the theoretical mass of the whole untagged protein (16.933 kDa); also called recombinant HP-NAP; purified HP-NAP; source: B. subtilis DB104 harboring pRPA-NAP; copies: 12
# Target: the molecule itself
# Assay: AUC; sedimentation velocity, HP-NAP at 0.3 mg/ml in D-PBS, pH 7.2, 41,000 rpm, 20°C, SEDFIT c(s); monomer mass by LC-MS
protein,measurement,value
B1,stoichiometry N,12

# Source: article PMC3620106, “One-Step Chromatographic Purification of Helicobacter pylori Neutrophil-Activating Protein Expressed in Bacillus subtilis” (PLoS ONE, 2013)
